# Source: article PMC8298264, “Function of cofactor Akirin2 in the regulation of gene expression in model human neutrophil-like HL60 cells” (Bioscience Reports, 2021)
# Tested on: human HL60 cells
# Assay: SWATH-MS proteomics, differential protein representation, akirin2 KO vs WT HL60 cells
# Assay type: cell-based
# Conditions: SWATH-MS, akirin2 KO vs WT HL60 cells; sheet "Under-represented in KO"
# In short: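 WT and akirin2 KO HL60 lysates (150 µg, n=3 biological replicates) were FASP trypsin-digested and desalted. A spectral library was built by IDA from 3 µg digests, then 5 µg per sample went to variable-window SWATH DIA over a 120-min 5–30% acetonitrile gradient. Identifications were accepted at 1% global FDR, with total-area-sum normalization.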
Molecule,Fold Change,Log (Fold Change)
"sp¦Q86W42¦THOC6_HUMAN (protein, UniProt Q86W42 1-341, looked up) THO complex subunit 6: MERAVPLAVPLGQTEVFQALQRLHMTIFSQSVSPCGKFLAAGNNYGQIAIFSLSSALSSEAKEESKKPVVTFQAHDGPVYSMVSTDRHLLSAGDGEVKAWLWAEMLKKGCKELWRRQPPYRTSLEVPEINALLLVPKENSLILAGGDCQLHTMDLETGTFTRVLRGHTDYIHCLALRERSPEVLSGGEDGAVRLWDLRTAKEVQTIEVYKHEECSRPHNGRWIGCLATDSDWMVCGGGPALTLWHLRSSTPTTIFPIRAPQKHVTFYQDLILSAGQGRCVNQWQLSGELKAQVPGSSPGLLSLSLNQQPAAPECKVLTAAGNSCRVDVFTNLGYRAFSLSF",0.7851,-0.1051
"sp¦Q15006¦EMC2_HUMAN (protein, UniProt Q15006 2-297, looked up) ER membrane protein complex …: AKVSELYDVTWEEMRDKMRKWREENSRNSEQIVEVGEELINEYASKLGDDIWIIYEQVMIAALDYGRDDLALFCLQELRRQFPGSHRVKRLTGMRFEAMERYDDAIQLYDRILQEDPTNTAARKRKIAIRKAQGKNVEAIRELNEYLEQFVGDQEAWHELAELYINEHDYAKAAFCLEELMMTNPHNHLYCQQYAEVKYTQGGLENLELSRKYFAQALKLNNRNMRALFGLYMSASHIASNPKASAKTKKDNMKYASWAASQINRAYQFAGRSKKETKYSLKAVEDMLETLQITQS",0.7911,-0.1017
"sp¦P50570¦DYN2_HUMAN (protein, UniProt P50570 1-870, looked up) Dynamin-2: MGNRGMEELIPLVNKLQDAFSSIGQSCHLDLPQIAVVGGQSAGKSSVLENFVGRDFLPRGSGIVTRRPLILQLIFSKTEHAEFLHCKSKKFTDFDEVRQEIEAETDRVTGTNKGISPVPINLRVYSPHVLNLTLIDLPGITKVPVGDQPPDIEYQIKDMILQFISRESSLILAVTPANMDLANSDALKLAKEVDPQGLRTIGVITKLDLMDEGTDARDVLENKLLPLRRGYIGVVNRSQKDIEGKKDIRAALAAERKFFLSHPAYRHMADRMGTPHLQKTLNQQLTNHIRESLPALRSKLQSQLLSLEKEVEEYKNFRPDDPTRKTKALLQMVQQFGVDFEKRIEGSGDQVDTLELSGGARINRIFHERFPFELVKMEFDEKDLRREISYAIKNIHGVRTGLFTPDLAFEAIVKKQVVKLKEPCLKCVDLVIQELINTVRQCTSKLSSYPRLREETERIVTTYIREREGRTKDQILLLIDIEQSYINTNHEDFIGFANAQQRSTQLNKKRAIPNQGEILVIRRGWLTINNISLMKGGSKEYWFVLTAESLSWYKDEEEKEKKYMLPLDNLKIRDVEKGFMSNKHVFAIFNTEQRNVYKDLRQIELACDSQEDVDSWKASFLRAGVYPEKDQAENEDGAQENTFSMDPQLERQVETIRNLVDSYVAIINKSIRDLMPKTIMHLMINNTKAFIHHELLAYLYSSADQSSLMEESADQAQRRDDMLRMYHALKEALNIIGDISTSTVSTPVPPPVDDTWLQSASSHSPTPQRRPVSSIHPPGRPPAVRGPTPGPPLIPVPVGAAASFSAPPIPSRPGPQSVFANSDLFPAPPQIPSRPVRIPPGIPPGVPSRRPPAAPSRPTIIRPAEPSLLD",0.7916,-0.1015
"sp¦O94874¦UFL1_HUMAN (protein, UniProt O94874 2-794, looked up) E3 UFM1-protein ligase 1: ADAWEEIRRLAADFQRAQFAEATQRLSERNCIEIVNKLIAQKQLEVVHTLDGKEYITPAQISKEMRDELHVRGGRVNIVDLQQVINVDLIHIENRIGDIIKSEKHVQLVLGQLIDENYLDRLAEEVNDKLQESGQVTISELCKTYDLPGNFLTQALTQRLGRIISGHIDLDNRGVIFTEAFVARHKARIRGLFSAITRPTAVNSLISKYGFQEQLLYSVLEELVNSGRLRGTVVGGRQDKAVFVPDIYSRTQSTWVDSFFRQNGYLEFDALSRLGIPDAVSYIKKRYKTTQLLFLKAACVGQGLVDQVEASVEEAISSGTWVDIAPLLPTSLSVEDAAILLQQVMRAFSKQASTVVFSDTVVVSEKFINDCTELFRELMHQKAEKEMKNNPVHLITEEDLKQISTLESVSTSKKDKKDERRRKATEGSGSMRGGGGGNAREYKIKKVKKKGRKDDDSDDESQSSHTGKKKPEISFMFQDEIEDFLRKHIQDAPEEFISELAEYLIKPLNKTYLEVVRSVFMSSTTSASGTGRKRTIKDLQEEVSNLYNNIRLFEKGMKFFADDTQAALTKHLLKSVCTDITNLIFNFLASDLMMAVDDPAAITSEIRKKILSKLSEETKVALTKLHNSLNEKSIEDFISCLDSAAEACDIMVKRGDKKRERQILFQHRQALAEQLKVTEDPALILHLTSVLLFQFSTHSMLHAPGRCVPQIIAFLNSKIPEDQHALLVKYQGLVVKQLVSQSKKTGQGDYPLNNELDKEQEDVASTTRKELQELSSSIKDLVLKSRKSSVTEE",0.7911,-0.1018
"sp¦Q9BTE7¦DCNL5_HUMAN (protein, UniProt Q9BTE7 1-237, looked up) DCN1-like protein 5: MPVKKKRKSPGVAAAVAEDGGLKKCKISSYCRSQPPARLISGEEHFSSKKCLAWFYEYAGPDEVVGPEGMEKFCEDIGVEPENIIMLVLAWKLEAESMGFFTKEEWLKGMTSLQCDCTEKLQNKFDFLRSQLNDISSFKNIYRYAFDFARDKDQRSLDIDTAKSMLALLLGRTWPLFSVFYQYLEQSKYRVMNKDQWYNVLEFSRTVHADLSNYDEDGAWPVLLDEFVEWQKVRQTS",0.7927,-0.1009
"sp¦P43490¦NAMPT_HUMAN (protein, UniProt P43490 1-491, looked up) Nicotinamide …: MNPAAEAEFNILLATDSYKVTHYKQYPPNTSKVYSYFECREKKTENSKLRKVKYEETVFYGLQYILNKYLKGKVVTKEKIQEAKDVYKEHFQDDVFNEKGWNYILEKYDGHLPIEIKAVPEGFVIPRGNVLFTVENTDPECYWLTNWIETILVQSWYPITVATNSREQKKILAKYLLETSGNLDGLEYKLHDFGYRGVSSQETAGIGASAHLVNFKGTDTVAGLALIKKYYGTKDPVPGYSVPAAEHSTITAWGKDHEKDAFEHIVTQFSSVPVSVVSDSYDIYNACEKIWGEDLRHLIVSRSTQAPLIIRPDSGNPLDTVLKVLEILGKKFPVTENSKGYKLLPPYLRVIQGDGVDINTLQEIVEGMKQKMWSIENIAFGSGGGLLQKLTRDLLNCSFKCSYVVTNGLGINVFKDPVADPNKRSKKGRLSLHRTPAGNFVTLEEGKGDLEEYGQDLLHTVFKNGKVTKSYSFDEIRKNAQLNIELEAAHH",0.7897,-0.1025
"sp¦Q70J99¦UN13D_HUMAN (protein, UniProt Q70J99 1-1090, looked up) Protein unc-13 homolog D: MATLLSHPQQRPPFLRQAIKIRRRRVRDLQDPPPQMAPEIQPPSHHFSPEQRALLYEDALYTVLHRLGHPEPNHVTEASELLRYLQEAFHVEPEEHQQTLQRVRELEKPIFCLKATVKQAKGILGKDVSGFSDPYCLLGIEQGVGVPGGSPGSRHRQKAVVRHTIPEEETHRTQVITQTLNPVWDETFILEFEDITNASFHLDMWDLDTVESVRQKLGELTDLHGLRRIFKEARKDKGQDDFLGNVVLRLQDLRCREDQWYPLEPRTETYPDRGQCHLQFQLIHKRRATSASRSQPSYTVHLHLLQQLVSHEVTQHEAGSTSWDGSLSPQAATVLFLHATQKDLSDFHQSMAQWLAYSRLYQSLEFPSSCLLHPITSIEYQWIQGRLKAEQQEELAASFSSLLTYGLSLIRRFRSVFPLSVSDSPARLQSLLRVLVQMCKMKAFGELCPNTAPLPQLVTEALQTGTTEWFHLKQQHHQPMVQGIPEAGKALLGLVQDVIGDLHQCQRTWDKIFHNTLKIHLFSMAFRELQWLVAKRVQDHTTVVGDVVSPEMGESLFQLYISLKELCQLRMSSSERDGVLALDNFHRWFQPAIPSWLQKTYNEALARVQRAVQMDELVPLGELTKHSTSAVDLSTCFAQISHTARQLDWPDPEEAFMITVKFVEDTCRLALVYCSLIKARARELSSGQKDQGQAANMLCVVVNDMEQLRLVIGKLPAQLAWEALEQRVGAVLEQGQLQNTLHAQLQSALAGLGHEIRTGVRTLAEQLEVGIAKHIQKLVGVRESVLPEDAILPLMKFLEVELCYMNTNLVQENFSSLLTLLWTHTLTVLVEAAASQRSSSLASNRLKIALQNLEICFHAEGCGLPPKALHTATFQALQRDLELQAASSRELIRKYFCSRIQQQAETTSEELGAVTVKASYRASEQKLRVELLSASSLLPLDSNGSSDPFVQLTLEPRHEFPELAARETQKHKKDLHPLFDETFEFLVPAEPCRKAGACLLLTVLDYDTLGADDLEGEAFLPLREVPGLSGSEEPGEVPQTRLPLTYPAPNGDPILQLLEGRKGDREAQVFVRLRRHRAKQASQHALRPAP",0.785,-0.1051
"sp¦Q96E11¦RRFM_HUMAN (protein, UniProt Q96E11 56-262, looked up) Ribosome-recycling factor, …: ATKKAKAKGKGQSQTRVNINAALVEDIINLEEVNEEMKSVIEALKDNFNKTLNIRTSPGSLDKIAVVTADGKLALNQISQISMKSPQLILVNMASFPECTAAAIKAIRESGMNLNPEVEGTLIRVPIPQVTREHREMLVKLAKQNTNKAKDSLRKVRTNSMNKLKKSKDTVSEDTIRLIEKQISQMADDTVAELDRHLAVKTKELLG",0.7929,-0.1008

# Same assay, conditions: akirin2 KO vs WT HL60 cells; sheet "Under-represented in KO"
Molecule,Fold Change,Log (Fold Change)
"sp¦Q9Y383¦LC7L2_HUMAN (protein, UniProt Q9Y383 1-392, looked up) Putative RNA-binding protein …: MSAQAQMRAMLDQLMGTSRDGDTTRQRIKFSDDRVCKSHLLNCCPHDVLSGTRMDLGECLKVHDLALRADYEIASKEQDFFFELDAMDHLQSFIADCDRRTEVAKKRLAETQEEISAEVAAKAERVHELNEEIGKLLAKVEQLGAEGNVEESQKVMDEVEKARAKKREAEEVYRNSMPASSFQQQKLRVCEVCSAYLGLHDNDRRLADHFGGKLHLGFIEIREKLEELKRVVAEKQEKRNQERLKRREEREREEREKLRRSRSHSKNPKRSRSREHRRHRSRSMSRERKRRTRSKSREKRHRHRSRSSSRSRSRSHQRSRHSSRDRSRERSKRRSSKERFRDQDLASCDRDRSSRDRSPRDRDRKDKKRSYESANGRSEDRRSSEEREAGEI",0.3527,-0.4526
"sp¦Q9BVI4¦NOC4L_HUMAN (protein, UniProt Q9BVI4 1-516, looked up) Nucleolar complex protein 4 …: MEREPGAAGVRRALGRRLEAVLASRSEANAVFDILAVLQSEDQEEIQEAVRTCSRLFGALLERGELFVGQLPSEEMVMTGSQGATRKYKVWMRHRYHSCCNRLGELLGHPSFQVKELALSALLKFVQLEGAHPLEKSKWEGNYLFPRELFKLVVGGLLSPEEDQSLLLSQFREYLDYDDTRYHTMQAAVDAVARVTGQHPEVPPAFWNNAFTLLSAVSLPRREPTVSSFYVKRAELWDTWKVAHLKEHRRVFQAMWLSFLKHKLPLSLYKKVLLIVHDAILPQLAQPTLMIDFLTRACDLGGALSLLALNGLFILIHKHNLEYPDFYRKLYGLLDPSVFHVKYRARFFHLADLFLSSSHLPAYLVAAFAKRLARLALTAPPEALLMVLPFICNLLRRHPACRVLVHRPHGPELDADPYDPGEEDPAQSRALESSLWELQALQRHYHPEVSKAASVINQALSMPEVSIAPLLELTAYEIFERDLKKKGPEPVPLEFIPAQGLLGRPGELCAQHFTLS",0.3572,-0.4471
